# B1: RNV-L7 (ssDNA)
# DNA: GGACAGGACCACACCCAGCGCGGTCGGCGGGTGGGCGGGGGGAGAACGAGGTAGGGGTCAGGCTCCTGTGTGTCGCTTTGT
# B2: RNV-L7 truncated (ssDNA)
# DNA: CGGTCGGCGGGTGGGCGGGGGGAGAACGAGGTAGGGGTCA
# Biological target: LDL-R (human, UniProt P01130 22-788)
# Experiment: ELONA
# Chain of LDL-R (P01130 22-788): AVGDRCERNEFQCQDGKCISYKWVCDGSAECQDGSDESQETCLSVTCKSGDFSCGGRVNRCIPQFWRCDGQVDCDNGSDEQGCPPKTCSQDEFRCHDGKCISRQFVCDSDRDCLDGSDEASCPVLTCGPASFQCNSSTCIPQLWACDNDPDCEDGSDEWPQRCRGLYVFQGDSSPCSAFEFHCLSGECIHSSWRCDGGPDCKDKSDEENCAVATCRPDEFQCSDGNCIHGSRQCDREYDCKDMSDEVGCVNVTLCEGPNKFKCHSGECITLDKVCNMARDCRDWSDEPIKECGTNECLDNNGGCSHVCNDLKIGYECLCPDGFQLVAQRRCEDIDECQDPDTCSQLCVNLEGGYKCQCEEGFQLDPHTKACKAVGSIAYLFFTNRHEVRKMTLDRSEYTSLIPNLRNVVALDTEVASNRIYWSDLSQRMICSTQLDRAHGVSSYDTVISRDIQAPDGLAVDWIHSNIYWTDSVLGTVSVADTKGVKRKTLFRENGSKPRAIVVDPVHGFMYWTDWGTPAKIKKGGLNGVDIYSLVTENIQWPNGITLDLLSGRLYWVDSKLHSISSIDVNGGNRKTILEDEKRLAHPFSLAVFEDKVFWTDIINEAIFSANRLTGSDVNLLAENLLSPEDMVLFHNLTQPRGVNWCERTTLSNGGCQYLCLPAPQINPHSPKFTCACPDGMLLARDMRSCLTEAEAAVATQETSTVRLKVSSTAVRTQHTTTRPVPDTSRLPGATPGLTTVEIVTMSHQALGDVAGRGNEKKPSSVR
Binder,Kd,binding result
B1,19.6 nM,–
B2,–,no binding
